Laboratory results as given in patent US20070238638A1 (TANOX, published 2007).

Biological target: T1, NFκB family member p65 (human, UniProt Q04206 1-551)
T1 construct: also called p65 NFκB protein
Test: EMSA gel supershift, HT29 nuclear extract on κB1 oligonucleotide
Procedure: Gel supershift assays were performed as described above, except that antibodies specific for various promoter-binding proteins were added after the initial binding reaction and the mixture was incubated overnight at 4° C.

T1 sequence (Q04206 whole entry): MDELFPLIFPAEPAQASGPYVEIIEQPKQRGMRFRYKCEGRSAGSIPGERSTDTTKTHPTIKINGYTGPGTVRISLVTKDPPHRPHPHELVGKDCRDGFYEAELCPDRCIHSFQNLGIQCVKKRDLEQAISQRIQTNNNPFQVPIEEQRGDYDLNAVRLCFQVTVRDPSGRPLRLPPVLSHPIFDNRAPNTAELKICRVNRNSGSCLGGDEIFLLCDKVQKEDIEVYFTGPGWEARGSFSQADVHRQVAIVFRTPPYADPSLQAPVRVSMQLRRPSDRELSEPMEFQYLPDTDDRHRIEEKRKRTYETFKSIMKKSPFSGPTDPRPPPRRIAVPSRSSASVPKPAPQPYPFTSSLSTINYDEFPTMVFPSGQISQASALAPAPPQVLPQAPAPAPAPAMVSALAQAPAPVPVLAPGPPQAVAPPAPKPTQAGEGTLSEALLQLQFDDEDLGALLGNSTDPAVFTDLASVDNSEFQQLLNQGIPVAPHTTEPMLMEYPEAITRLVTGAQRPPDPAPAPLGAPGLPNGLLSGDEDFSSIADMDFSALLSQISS

binding result: binds
B1: NFκB family member p50 (other, human, UniProt P19838 1-433, looked up)
chain: MAEDDPYLGRPEQMFHLDPSLTHTIFNPEVFQPQMALPTDGPYLQILEQPKQRGFRFRYVCEGPSHGGLPGASSEKNKKSYPQVKICNYVGPAKVIVQLVTNGKNIHLHAHSLVGKHCEDGICTVTAGPKDMVVGFANLGILHVTKKKVFETLEARMTEACIRGYNPGLLVHPDLAYLQAEGGGDRQLGDREKELIRQAALQQTKEMDLSVVRLMFTAFLPDSTGSFTRRLEPVVSDAIYDSKAPNASNLKIVRMDRTAGCVTGGEEIYLLCDKVQKDDIQIRFYEEEENGGVWEGFGDFSPTDVHRQFAIVFKTPKYKDINITKPASVFVQLRRKSDLETSEPKPFLYYPEIKDKEEVQRKRQKLMPNFSDSFGGGSGAGAGGGGMFGSGGGGGGTGSTGPGYSFPHYGFPTYGGITFHPGTTKSNAGMKHG
notes: also called p50 NFκB protein
